Results reported in patent publication US20250163167A1 (SYNTHEKINE, published 2025).
Where a chain is given by its changes, count along the chain named.

B1: IL10R binding molecule of SEQ ID NO: 302 (bispecific antibody)
chain: QVQLQESGGGSVQAGGSLRLSCAASGYSNCSYDMTWYRQAPGKEREFVSAIHSDGSTRYADSVKGRFFISQDNAKNTVYLQMNSLKPEDTAMYYCKTDPLHCRAHGGSWYSVRANYWGQGTQVTVSSGGGSQVQLQESGGGSVEAGGSLRLSCAASGYTHSSYCMGWFRQAPGKEREGVAAIDVDGSTTYADSVKGRFTISKDNAKNTLYLQMNSLKPEDTGMYYCAAEFADCSSNYFLPPGAVRYWGQGTQVTVSSASHHHHHH
B2: IL10R binding molecule of SEQ ID NO: 299 (bispecific antibody)
chain: QVQLQESGGGSVQAGGSLRLSCAASGYSNCSYDMTWYRQAPGKEREFVSAIHSDGSTRYADSVKGRFFISQDNAKNTVYLQMNSLKPEDTAMYYCKTDPLHCRAHGGSWYSVRANYWGQGTQVTVSSGGGSQVQLQESGGGSVQAGGSLRLSCAASGYTYSSYCMGWFRQAPGKEREGVAHIDSDGSTSYADSVKGRFTISKDNAKNTLYLQMNSLKPEDTAMYYCAADPIPGPGYCDGGPNKYWGQGTQVTVSSASHHHHHH
B3: hIL10Rb VHH-2 (VHH)
VHH: QVQLQESGGGSVQAGGSLRLSCAASGYTYSSYCMGWFRQAPGKEREGVAAIDSDGSTRYADSVKGRFTISKDNAKNTLYLQMNSLKPEDTAMYYCAAEPYCSGGYKRTMVAEFGYWGQGTQVTVSS
notes: Phage clone, periplasmic extract
B4: hIL10Rb VHH-7 (VHH)
VHH: B3 VHH with Y32G, A50T, D52N, R58N, K106P, T108W, M109S
notes: as for B3
B5: hIL10Rb VHH-8 (VHH)
VHH: QVQLQESGGGSVQAGGSLRLSCAASGYSYSSYCMGWFRQAPGKEREGVAAIASDGSTSYADSVKGRFAISKDNAKNTLYLQMASLKPEDTAMYYCAAEPWCTGGYSRLTPAEYGYWGQGTQVTVSS
notes: as for B3
B6: IL10R binding molecule of SEQ ID NO: 298 (bispecific antibody)
chain: QVQLQESGGGSVQAGGSLRLSCAASGYSNCSYDMTWYRQAPGKEREFVSAIHSDGSTRYADSVKGRFFISQDNAKNTVYLQMNSLKPEDTAMYYCKTDPLHCRAHGGSWYSVRANYWGQGTQVTVSSGGGSQVQLQESGGGSVQAGGSLRLSCAASGYTYSSGCMGWFRQAPGKEREAVAAINSDGSTSYADSVKGRFTISKDNAKNTLYLQMNSLKPEDTAMYYCAAEPYCSGGYPRWSVAEFGYWGQGTQVTVSSASHHHHHH
B7: IL10R binding molecule of SEQ ID NO: 301 (bispecific antibody)
chain: QVQLQESGGGSVQAGGSLRLSCAASGYSNCSYDMTWYRQAPGKEREFVSAIHSDGSTRYADSVKGRFFISQDNAKNTVYLQMNSLKPEDTAMYYCKTDPLHCRAHGGSWYSVRANYWGQGTQVTVSSGGGSQVQLQESGGGSVQAGGSLRLSCTVSRYTASVNYMGWFRQAPGKEREGVATIFTGAGTTYYANSVKGRFTISRDNAKNTAYLQMNSLKPEDTAIYYCAVDFRGGLLYRPAYEYTYRGQGTQVTVSSASHHHHHH
B8: IL10R binding molecule of SEQ ID NO: 300 (bispecific antibody)
chain: QVQLQESGGGSVQAGGSLRLSCAASGYSNCSYDMTWYRQAPGKEREFVSAIHSDGSTRYADSVKGRFFISQDNAKNTVYLQMNSLKPEDTAMYYCKTDPLHCRAHGGSWYSVRANYWGQGTQVTVSSGGGSQVQLQESGGGSVQAGGSLRLSCAASRYTYNSYCMGWFRQAPGKEREGVATIDSDGMTRYADSVKGRFTISKDNAKNTLYLQMNSLKPEDTAMYYCAADADCTIAAMTTNPLGQGTQVTVSSASHHHHHH
B9: IL10R binding molecule of SEQ ID NO: 303 (bispecific antibody)
chain: QVQLQESGGGSVQAGGSLRLSCAASGYSNCSYDMTWYRQAPGKEREFVSAIHSDGSTRYADSVKGRFFISQDNAKNTVYLQMNSLKPEDTAMYYCKTDPLHCRAHGGSWYSVRANYWGQGTQVTVSSGGGSQVQLQESGGGSVQAGGSLRLSCAASGYSYSSYCMGWFRQAPGKEREGVATIDSDGMTRYADSVKGRFTISKDNAKNTLYLQMNSLKPEDTAMYYCAAPLYDCDSGAVGRNPPYWGQGTQVTVSSASHHHHHH

Tests used:
[1] = molecular target: T1, human IL-10 receptor (hIL-10R alpha and beta chains) on HEK-Blue IL-10 reporter cells (human, UniProt Q13651 22-578; Q08334 20-325); test: cell-based or functional assay
T1 sequence 1: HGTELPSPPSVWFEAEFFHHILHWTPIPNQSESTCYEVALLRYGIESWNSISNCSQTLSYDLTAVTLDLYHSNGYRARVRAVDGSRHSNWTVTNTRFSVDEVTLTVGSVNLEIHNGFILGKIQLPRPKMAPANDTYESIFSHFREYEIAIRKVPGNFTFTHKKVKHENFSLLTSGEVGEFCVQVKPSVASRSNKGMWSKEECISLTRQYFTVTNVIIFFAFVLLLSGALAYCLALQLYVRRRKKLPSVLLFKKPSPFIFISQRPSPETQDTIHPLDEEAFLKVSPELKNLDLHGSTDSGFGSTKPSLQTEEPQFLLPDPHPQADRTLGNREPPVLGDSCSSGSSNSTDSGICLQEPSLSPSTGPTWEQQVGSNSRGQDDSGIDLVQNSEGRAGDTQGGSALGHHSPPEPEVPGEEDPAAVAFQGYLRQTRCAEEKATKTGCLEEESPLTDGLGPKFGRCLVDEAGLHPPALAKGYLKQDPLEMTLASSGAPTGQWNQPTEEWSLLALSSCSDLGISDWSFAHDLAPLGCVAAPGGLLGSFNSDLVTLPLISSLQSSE
T1 sequence 2: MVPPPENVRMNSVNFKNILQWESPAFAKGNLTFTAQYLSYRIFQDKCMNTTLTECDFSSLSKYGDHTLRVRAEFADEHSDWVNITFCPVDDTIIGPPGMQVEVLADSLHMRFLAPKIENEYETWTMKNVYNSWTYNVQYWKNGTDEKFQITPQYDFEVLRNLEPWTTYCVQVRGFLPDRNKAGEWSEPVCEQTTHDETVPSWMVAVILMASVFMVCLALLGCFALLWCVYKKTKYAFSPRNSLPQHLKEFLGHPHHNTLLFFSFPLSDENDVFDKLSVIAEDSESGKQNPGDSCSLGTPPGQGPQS

hIL10Rb ECD antigen = molecular target: T2, hIL10Rb ECD antigen (human, UniProt Q08334 20-220); test: periplasmic extract ELISA (PE-ELISA) of phage clones
T2 construct: Antigen of biopanning and PE-ELISA; also called extracellular domain of hIL10Rb
T2 sequence: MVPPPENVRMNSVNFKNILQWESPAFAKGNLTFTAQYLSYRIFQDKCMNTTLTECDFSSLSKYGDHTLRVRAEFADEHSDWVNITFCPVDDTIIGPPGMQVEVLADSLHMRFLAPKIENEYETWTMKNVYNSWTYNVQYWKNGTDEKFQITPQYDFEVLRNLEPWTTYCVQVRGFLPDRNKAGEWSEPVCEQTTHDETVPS

Row | Binder | Abs 630 (25 nM) [1] | Abs 630 (100 nM) [1] | binding result (hIL10Rb ECD antigen)
1 | B1 | 1.98 Abs 630 | 2.09 Abs 630 | 
2 | B2 | 0.47 Abs 630 | 0.37 Abs 630 | 
3 | B3 |  |  | binds
4 | B4 |  |  | binds
5 | B5 |  |  | binds
6 | B6 | 0.84 Abs 630 | 0.38 Abs 630 | 
7 | B7 | 2.05 Abs 630 | 1.91 Abs 630 | 
8 | B8 | 2.08 Abs 630 | 2.11 Abs 630 | 
9 | B9 | 1.92 Abs 630 | 1.93 Abs 630 | 
